Results from patent US20050215629.
Changes are numbered by the printed parent chain.

T1: synthetic phosphotyrosine peptide Arg-Arg-Leu-Ile-Glu-Asp-Ala-Glu-Tyr-Ala-Ala-Arg-Gly, wherein the tyrosine is phosphorylated
T1 chain: RRLIEDAEYAARG

B1: Flag-tagged PRL-1 (protein)
chain: MARMNRPAPVEVTYKNMRFLITHNPTNATLNKFIEELKKYGVTTIVRVCEATYDTTLVEKEGIHVLDWPFDDGAPPSNQIVDDWLSLVKIKFREEPGCCIAVHCVAGLGRAPVLVALALIEGGMKYEDAVQFIRQKRRGAFNSKQLLYLEKYRPKMRLRFKDSNGHRNNCCIQ
B2: Flag-tagged PRL-1R86 mutant (protein)
chain: B1 chain with S86R
B3: GST fusion protein of human PRL-1 (protein)
chain: B1 chain
B4: GST fusion protein of human PRL-2 (protein)
chain: MNRPAPVEISYENMRFLITHNPTNATLNKFTEELKKYGVTTLVRVCDATYDKAPVEKEGIHVLDWPFDDGAPPPNQIVDDWLNLLKTKFREEPGCCVAVHCVAGLGRAPVLVALALIECGMKYEDAVQFIRQKRRGAFNSKQLLYLEKYRPKMRLRFRDTNGHCCVQ
B5: GST fusion protein of PRL-1R86 (protein)
chain: B1 chain with S86R

Target: T1, synthetic phosphotyrosine peptide …

| Protein | immunocomplex PTPase assay (anti-Flag immunocomplexes from NIH3T3 transfectants) | immunocomplex PTPase assay (anti-Flag immunocomplexes from WM9 transfectants) | in vitro PTPase assay |
| --- | --- | --- | --- |
| B1 | a markedly higher PTPase activity (about 23 folds) over that of control transfectants | showed phosphatase activities well above the background activity of the vector control cells |  |
| B2 |  | showed phosphatase activities well above the background activity of the vector control cells |  |
| B3 |  |  | PTPase activity of recombinant PRL-1, PRL-2 and PRL-3 in dephosphorylating a synthetic phosphotyrosine peptide substrate |
| B4 |  |  | PTPase activity of recombinant PRL-1, PRL-2 and PRL-3 in dephosphorylating a synthetic phosphotyrosine peptide substrate |
| B5 |  |  | showed in vitro PTPase activity similar to that of wild type PRL-1 |
